Test results from patent publication US20120108492A1, “LIGAND-SPECIFIC NON-ANTIBODY COMPOUNDS THAT INHIBIT CR2 ACTIVATION AND METHODS OF USE THEREOF” (The Regents of the University of Colorado, priority 2008, published 2012).
Where two headings read alike, the source gives them in different places.

Assays:
[1] = test system: anti-CR2 SCR1-2 monoclonal antibody 171; test: MBP-CR2 SCR1-2-171 mAb ELISA; type: binding; conditions: mutant MBP-CR2 SCR1-2 relative to wild-type; for % 171 mAb Binding: plate-bound 171 mAb
Description: See Asokan et al. (2006) J Immunol 177:383-94; Guthridge et al. (2001) J Immunol 167:5758-66; Young et al. (2007) J Biol Chem 282:36614-36625. […] Hannan et al. (2005) J Mol Biol 346:845-58; and Young et al. (2007) J Biol Chem 282:36614-36625.
(§1) After coating, the plates were blocked using 0.1% BSA in a PBS solution, pH 7.4 for one hour at room temperature. The plates were then washed, and incubated with either wild-type or mutant MBP-CR2 SCR1-2, at concentrations ranging from 0.03125-2.0 μg/ml in PBS for one hour at room temperature. After further washing, wild-type or mutant MBP-CR2 binding was detected using commercially available horseradish peroxidase-conjugated anti-MBP mAb (New England Biolabs) according to the manufacturer's instructions.

EBV gp350 [2] = target: T1, EBV gp350 (Epstein-Barr virus, UniProt P03200); test: MBP-CR2 SCR1-2 mutant-EBV gp350 ELISA; type: binding; design: DNA corresponding to residues 1-470 of EBV gp350/220; E. coli biotin carboxyl carrier protein (BCCP) fragment, residues 70-156; hexa-histidine (C); made in house; host or cells: human embryonic kidney 293f freestyle cells (pSecTag2/Hygro B); conditions: for EBV gp350 binding relative to wild-type CR2: mutant MBP-CR2 SCR1-2
Description: See Martin et al. (1991) J Exp Med 174:1299-311; Young et al. (2007) J Biol Chem 282:36614-36625; Guthridge et al. (2001) Biochemistry 40:5931-41; and Sarrias et al. (2001) J Immunol 167:1490-9. […] Young et al. (2007) J Biol Chem 282:36614-36625.
as §1

anti-CR2 SCR1-2 mAb 629 = test: MBP-CR2 SCR1-2-629 mAb ELISA; type: binding; conditions: mutant MBP-CR2 SCR1-2 relative to wild-type; for % 629 mAb Bindng: plate-bound 629 mAb
Text: The excellent correlation observed between our cell-binding studies and the ELISA analyses provides proof-of-principle that the MBP-CR2 SCR1-2 ELISA is an effective means of characterizing CR2-ligand interactions. […] See Asokan et al. (2006) J Immunol 177:383-94; Guthridge et al. (2001) J Immunol 167:5758-66; Young et al. (2007) J Biol Chem 282:36614-36625. […] This epitope overlaps extensively with the binding surface on CR2 described above for EBV gp350, and also with the previously described binding sites for C3dg and C3d. Hannan et al. (2005) J Mol Biol 346:845-58; and Young et al. (2007) J Biol Chem 282:36614-36625.
as §1

EBV gp350 [3] = target: T1, EBV gp350; conditions: previously observed cell-binding study; mutant CR2 relative to wild-type; cited from earlier work

T1 sequence (P03200 1-470): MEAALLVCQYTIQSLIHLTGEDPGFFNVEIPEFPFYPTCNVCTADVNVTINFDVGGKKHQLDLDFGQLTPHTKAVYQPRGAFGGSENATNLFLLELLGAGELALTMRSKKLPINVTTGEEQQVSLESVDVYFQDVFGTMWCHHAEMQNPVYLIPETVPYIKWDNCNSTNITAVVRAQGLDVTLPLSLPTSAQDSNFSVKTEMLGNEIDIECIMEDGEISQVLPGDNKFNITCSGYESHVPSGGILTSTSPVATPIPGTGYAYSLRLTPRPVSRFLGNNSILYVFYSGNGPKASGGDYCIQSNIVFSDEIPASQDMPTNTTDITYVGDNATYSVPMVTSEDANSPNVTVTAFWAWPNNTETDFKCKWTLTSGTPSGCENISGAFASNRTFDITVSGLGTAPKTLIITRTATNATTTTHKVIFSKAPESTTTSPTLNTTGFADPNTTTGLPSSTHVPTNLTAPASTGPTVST

| Molecule | Weighting (171 mAb) [1] | % 171 mAb Binding [1] | EBV gp350 binding relative to wild-type CR2 (EBV gp350 [2]) | Weighting (629 mAb) (anti-CR2 SCR1-2 mAb 629) | % 629 mAb Bindng (anti-CR2 SCR1-2 mAb 629) | decrease in EBV gp350 binding (EBV gp350 [2]; reduction relative to wild-type MBP-CR2 SCR1-2) | EBV gp350 binding (EBV gp350 [3]) | EBV gp350 binding (EBV gp350 [2]; mutant CR2 relative to wild-type CR2) |
| --- | --- | --- | --- | --- | --- | --- | --- | --- |
| K57A: single-site mutant of recombinant MBP-CR2 SCR1-2 (protein, left off: large carriers; small tags and cut ends) ISCGSPPPILNGRISYYSTPIAVGTVIRYSCSGTFRLIGEKSLLCITKDKVDGTWDAPAPKCEYFNKYSSCPEPIVPGGYKIRGSTPYRHGDSVTFACKTNFSMNGNKSVWCQANNMWGPTRLPTCVSVFPLE | ++++ (++++>90%) | 91.9% | significantly decreased capacity | +++ (+++89.9-70%) | 85.5% |  |  |  |
| K67A: single-site mutant of recombinant MBP-CR2 SCR1-2 (protein, left off: large carriers; small tags and cut ends) ISCGSPPPILNGRISYYSTPIAVGTVIRYSCSGTFRLIGEKSLLCITKDKVDGTWDKPAPKCEYFNAYSSCPEPIVPGGYKIRGSTPYRHGDSVTFACKTNFSMNGNKSVWCQANNMWGPTRLPTCVSVFPLE | +++ (+++89.9-70%) | 87.7% |  | ++++ (++++>90%) | 107.2% | approximately 20% |  |  |
| S15P: single-site mutant of recombinant MBP-CR2 SCR1-2 (protein, left off: large carriers; small tags and cut ends) ISCGSPPPILNGRIPYYSTPIAVGTVIRYSCSGTFRLIGEKSLLCITKDKVDGTWDKPAPKCEYFNKYSSCPEPIVPGGYKIRGSTPYRHGDSVTFACKTNFSMNGNKSVWCQANNMWGPTRLPTCVSVFPLE | ++++ (++++>90%) | 108.5% | major reduction in EBV gp350 binding | ++++ (++++>90%) | 91.7% |  |  |  |
| L10A: single-site mutant of recombinant MBP-CR2 SCR1-2 (protein, left off: large carriers; small tags and cut ends) ISCGSPPPIANGRISYYSTPIAVGTVIRYSCSGTFRLIGEKSLLCITKDKVDGTWDKPAPKCEYFNKYSSCPEPIVPGGYKIRGSTPYRHGDSVTFACKTNFSMNGNKSVWCQANNMWGPTRLPTCVSVFPLE | ++++ (++++>90%) | 94.7% | failed to inhibit EBV gp350 binding | ++++ (++++>90%) | 113.2% |  |  |  |
| R83A: single-site mutant of recombinant MBP-CR2 SCR1-2 (protein, left off: large carriers; small tags and cut ends) ISCGSPPPILNGRISYYSTPIAVGTVIRYSCSGTFRLIGEKSLLCITKDKVDGTWDKPAPKCEYFNKYSSCPEPIVPGGYKIAGSTPYRHGDSVTFACKTNFSMNGNKSVWCQANNMWGPTRLPTCVSVFPLE | ++++ (++++>90%) | 96.9% | decreased binding affinities for EBV gp350 | ++++ (++++>90%) | 94.4% |  |  |  |
| R89A: single-site mutant of recombinant MBP-CR2 SCR1-2 (protein, left off: large carriers; small tags and cut ends) ISCGSPPPILNGRISYYSTPIAVGTVIRYSCSGTFRLIGEKSLLCITKDKVDGTWDKPAPKCEYFNKYSSCPEPIVPGGYKIRGSTPYAHGDSVTFACKTNFSMNGNKSVWCQANNMWGPTRLPTCVSVFPLE | ++++ (++++>90%) | 93.9% | decreased binding affinities for EBV gp350 | +++ (+++89.9-70%) | 87.7% |  |  |  |
| Y16A: single-site mutant of recombinant MBP-CR2 SCR1-2 (protein, left off: large carriers; small tags and cut ends) ISCGSPPPILNGRISAYSTPIAVGTVIRYSCSGTFRLIGEKSLLCITKDKVDGTWDKPAPKCEYFNKYSSCPEPIVPGGYKIRGSTPYRHGDSVTFACKTNFSMNGNKSVWCQANNMWGPTRLPTCVSVFPLE | +++ (+++89.9-70%) | 81.4% | failed to inhibit EBV gp350 binding | ++++ (++++>90%) | 154.4% |  | 66.7% | 95.1% |
